Experimental data from article doi:10.1101/2020.11.05.369280 (bioRxiv, 2020).

Biological target: EIIA^Glc (UniProt P69783 2-169)
Assay: SPR + ELISA

EIIA^Glc, sequence (P69783 2-169): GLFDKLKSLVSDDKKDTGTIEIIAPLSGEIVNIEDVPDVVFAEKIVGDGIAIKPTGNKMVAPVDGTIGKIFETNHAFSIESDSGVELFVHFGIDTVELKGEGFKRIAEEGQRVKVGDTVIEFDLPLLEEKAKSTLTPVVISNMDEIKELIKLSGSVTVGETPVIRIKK

B1: EIIB^Glc (domain or fragment)
chain: EDATEDAKATGTSEMAPALVAAFGGKENITNLDACITRLRVSVADVSKVDQAGLKKLGAAGVVVAGSGVQAIFGTKSDNLKTEMDEYIRN
- Kd: > 10 µM
